Experimental data from the supplement of paper PMC9112550, “Optimization of the antimicrobial peptide Bac7 by deep mutational scanning” (BMC Biology, 2022).

Tested on: Escherichia coli TOP10
Assay: shrunken log2 fold change of peptide-encoding DNA abundance (4.5 h post-induction vs induction); higher = less antimicrobial activity (less host growth inhibition)
Details: time post-induction: 4.5 h; library: site-saturation at positions 5, 18, 19, 20
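Further: peptides expressed intracellularly from a pBAD plasmid library in pooled LB shake-flask culture, induced with 0.3% L-arabinose, DNA abundance read by NGS, three biological replicates, DESeq2 with apeglm shrinkage.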

In order of falling “shrunken log2 fold change” value:
1. RRIRRRPPRLPRPRPRPGYSPRP  1.84
2. RRIRWRPPRLPRPRPRPFEPPRP  1.2
3. RRIRGRPPRLPRPRPRPGRPPRP  0.737
4. RRIRSRPPRLPRPRPRPVRAPRP  0.655
5. RRIRGRPPRLPRPRPRPKCQPRP  0.581
6. RRIRRRPPRLPRPRPRPPMKPRP  0.522
7. RRIRRRPPRLPRPRPRPAWLPRP  0.505
8. RRIRVRPPRLPRPRPRPLHAPRP  0.473
9. RRIRTRPPRLPRPRPRPTFWPRP  0.467
10. RRIRVRPPRLPRPRPRPGRVPRP  0.405
11. RRIRLRPPRLPRPRPRPMCSPRP  0.382
12. RRIRTRPPRLPRPRPRPVRCPRP  0.382
13. RRIRLRPPRLPRPRPRPNWPPRP  0.379
14. RRIRGRPPRLPRPRPRPKKKPRP  0.354
15. RRIRARPPRLPRPRPRPIPAPRP  0.333
16. RRIRDRPPRLPRPRPRPTIEPRP  0.324
17. RRIRGRPPRLPRPRPRPYRYPRP  0.322
18. RRIRARPPRLPRPRPRPHWRPRP  0.319
19. RRIRTRPPRLPRPRPRPKMWPRP  0.307
20. RRIRARPPRLPRPRPRPTSSPRP  0.289
21. RRIRFRPPRLPRPRPRPRWDPRP  0.284
22. RRIRSRPPRLPRPRPRPEHTPRP  0.262
23. RRIRQRPPRLPRPRPRPADWPRP  0.258
24. RRIRTRPPRLPRPRPRPLRHPRP  0.252
25. RRIRQRPPRLPRPRPRPLRCPRP  0.244
26. RRIRHRPPRLPRPRPRPPSVPRP  0.241
27. RRIRTRPPRLPRPRPRPEQMPRP  0.233
28. RRIRSRPPRLPRPRPRPIPTPRP  0.2
29. RRIRMRPPRLPRPRPRPNDDPRP  0.196
30. RRIRYRPPRLPRPRPRPRWWPRP  0.189
31. RRIRVRPPRLPRPRPRPRQSPRP  0.181
32. RRIRPRPPRLPRPRPRPDLTPRP  0.168
33. RRIRKRPPRLPRPRPRPEHQPRP  0.163
34. RRIRTRPPRLPRPRPRPQRPPRP  0.158
35. RRIRRRPPRLPRPRPRPEGQPRP  0.131
36. RRIRQRPPRLPRPRPRPDVCPRP  0.13
37. RRIRRRPPRLPRPRPRPTESPRP  0.121
38. RRIRVRPPRLPRPRPRPELSPRP  0.119
39. RRIRHRPPRLPRPRPRPLFAPRP  0.107
40. RRIRQRPPRLPRPRPRPKFWPRP  0.104
41. RRIRRRPPRLPRPRPRPVDEPRP  0.0882
42. RRIRTRPPRLPRPRPRPRSYPRP  0.0838
43. RRIRKRPPRLPRPRPRPNARPRP  0.076
44. RRIRGRPPRLPRPRPRPVIKPRP  0.0737
45. RRIRCRPPRLPRPRPRPVSYPRP  0.0707
46. RRIRCRPPRLPRPRPRPGRKPRP  0.0644
47. RRIRVRPPRLPRPRPRPKEPPRP  0.0639
48. RRIRPRPPRLPRPRPRPNLLPRP  0.0634
49. RRIRNRPPRLPRPRPRPCMTPRP  0.0616
50. RRIRCRPPRLPRPRPRPQDAPRP  0.0575
51. RRIRKRPPRLPRPRPRPQQRPRP  0.0562
52. RRIRKRPPRLPRPRPRPYGWPRP  0.05
53. RRIRVRPPRLPRPRPRPLMAPRP  0.049
54. RRIRNRPPRLPRPRPRPIVEPRP  0.0466
55. RRIRRRPPRLPRPRPRPSCTPRP  0.0387
56. RRIRKRPPRLPRPRPRPSETPRP  0.0356
57. RRIRMRPPRLPRPRPRPWPSPRP  0.034
58. RRIRERPPRLPRPRPRPAMTPRP  0.0328
59. RRIRPRPPRLPRPRPRPECLPRP  0.0299
60. RRIRKRPPRLPRPRPRPDGRPRP  0.0261
61. RRIRLRPPRLPRPRPRPQCRPRP  0.0156
62. RRIRVRPPRLPRPRPRPGVLPRP  0.0138
63. RRIRNRPPRLPRPRPRPQKQPRP  0.00917
64. RRIRQRPPRLPRPRPRPCKEPRP  0.00843
65. RRIRDRPPRLPRPRPRPFMVPRP  0.00751
66. RRIRSRPPRLPRPRPRPADNPRP  0.00328
67. RRIRSRPPRLPRPRPRPAYEPRP  0.00308
68. RRIRCRPPRLPRPRPRPEGLPRP  0.0021
69. RRIRCRPPRLPRPRPRPDFRPRP  0.00204
70. RRIRHRPPRLPRPRPRPLVCPRP  -9.35e-05
71. RRIRYRPPRLPRPRPRPIDPPRP  -0.00088
72. RRIRNRPPRLPRPRPRPHREPRP  -0.00211
73. RRIRNRPPRLPRPRPRPEWDPRP  -0.00515
74. RRIRVRPPRLPRPRPRPHWEPRP  -0.0118
75. RRIRNRPPRLPRPRPRPQWTPRP  -0.0119
76. RRIRQRPPRLPRPRPRPWEKPRP  -0.0123
77. RRIRWRPPRLPRPRPRPVRMPRP  -0.0133
78. RRIRKRPPRLPRPRPRPVFIPRP  -0.0138
79. RRIRRRPPRLPRPRPRPQEQPRP  -0.0166
80. RRIRPRPPRLPRPRPRPTPYPRP  -0.0196
81. RRIRNRPPRLPRPRPRPMWDPRP  -0.021
82. RRIRHRPPRLPRPRPRPEMMPRP  -0.0229
83. RRIRTRPPRLPRPRPRPINPPRP  -0.0274
84. RRIRSRPPRLPRPRPRPKFVPRP  -0.0276
85. RRIRIRPPRLPRPRPRPMQTPRP  -0.0288
86. RRIRYRPPRLPRPRPRPEELPRP  -0.0326
87. RRIRKRPPRLPRPRPRPDCKPRP  -0.0333
88. RRIRRRPPRLPRPRPRPFCDPRP  -0.0358
89. RRIRIRPPRLPRPRPRPDGPPRP  -0.0369
90. RRIRSRPPRLPRPRPRPGKKPRP  -0.0502
91. RRIRIRPPRLPRPRPRPPSHPRP  -0.0543
92. RRIRKRPPRLPRPRPRPHWVPRP  -0.0562
93. RRIRARPPRLPRPRPRPAPYPRP  -0.0625
94. RRIRMRPPRLPRPRPRPTNLPRP  -0.0631
95. RRIRERPPRLPRPRPRPWKWPRP  -0.0653
96. RRIRSRPPRLPRPRPRPLSKPRP  -0.0737
97. RRIRQRPPRLPRPRPRPQMMPRP  -0.082
98. RRIRNRPPRLPRPRPRPQIVPRP  -0.0891
99. RRIRLRPPRLPRPRPRPYGLPRP  -0.0893
100. RRIRNRPPRLPRPRPRPRFFPRP  -0.0927
101. RRIRQRPPRLPRPRPRPRYMPRP  -0.0938
102. RRIRARPPRLPRPRPRPQNFPRP  -0.0953
103. RRIRYRPPRLPRPRPRPALQPRP  -0.1
104. RRIRNRPPRLPRPRPRPQDLPRP  -0.11
105. RRIRFRPPRLPRPRPRPWLKPRP  -0.111
106. RRIRGRPPRLPRPRPRPWSFPRP  -0.113
107. RRIRTRPPRLPRPRPRPMGHPRP  -0.118
108. RRIRPRPPRLPRPRPRPGNMPRP  -0.119
109. RRIRCRPPRLPRPRPRPVCMPRP  -0.119
110. RRIRARPPRLPRPRPRPDTVPRP  -0.125
111. RRIRVRPPRLPRPRPRPFYGPRP  -0.127
112. RRIRWRPPRLPRPRPRPRDYPRP  -0.127
113. RRIRWRPPRLPRPRPRPLWSPRP  -0.13
114. RRIRFRPPRLPRPRPRPDANPRP  -0.138
115. RRIRYRPPRLPRPRPRPYHGPRP  -0.139
116. RRIRYRPPRLPRPRPRPYCCPRP  -0.145
117. RRIRCRPPRLPRPRPRPIPWPRP  -0.146
118. RRIRCRPPRLPRPRPRPQTLPRP  -0.148
119. RRIRQRPPRLPRPRPRPKGKPRP  -0.155
120. RRIRGRPPRLPRPRPRPIIIPRP  -0.167
121. RRIRPRPPRLPRPRPRPKNVPRP  -0.169
122. RRIRIRPPRLPRPRPRPRHYPRP  -0.177
123. RRIRCRPPRLPRPRPRPPMSPRP  -0.178
124. RRIRHRPPRLPRPRPRPFDCPRP  -0.186
125. RRIRVRPPRLPRPRPRPHIIPRP  -0.204
126. RRIRKRPPRLPRPRPRPPYMPRP  -0.209
127. RRIRYRPPRLPRPRPRPAFGPRP  -0.21
128. RRIRPRPPRLPRPRPRPSLVPRP  -0.222
129. RRIRFRPPRLPRPRPRPMATPRP  -0.227
130. RRIRSRPPRLPRPRPRPKGTPRP  -0.237
131. RRIRCRPPRLPRPRPRPNTRPRP  -0.267
132. RRIRLRPPRLPRPRPRPGNHPRP  -0.267
133. RRIRPRPPRLPRPRPRPMWSPRP  -0.276
134. RRIRPRPPRLPRPRPRPSSMPRP  -0.29
135. RRIRKRPPRLPRPRPRPHQYPRP  -0.293
136. RRIRCRPPRLPRPRPRPCRLPRP  -0.3
137. RRIRFRPPRLPRPRPRPGDTPRP  -0.309
138. RRIRLRPPRLPRPRPRPYYSPRP  -0.309
139. RRIRWRPPRLPRPRPRPHHQPRP  -0.316
140. RRIRSRPPRLPRPRPRPYSGPRP  -0.328
141. RRIRIRPPRLPRPRPRPDFCPRP  -0.42
142. RRIRHRPPRLPRPRPRPKFHPRP  -0.429
143. RRIRVRPPRLPRPRPRPMFMPRP  -0.562
144. RRIRPRPPRLPRPRPRPSQVPRP  -0.645
145. RRIRNRPPRLPRPRPRPNNQPRP  -0.703
146. RRIRFRPPRLPRPRPRPFMYPRP  -0.742
147. RRIRTRPPRLPRPRPRPEYYPRP  -0.855
148. RRIRFRPPRLPRPRPRPFYTPRP  -0.89
149. RRIRFRPPRLPRPRPRPWICPRP  -1.05
150. RRIRYRPPRLPRPRPRPWHFPRP  -1.15
